# Values of other authors as cited in article PMC3376167.
# Molecular target: ARNT PAS-B (Homo sapiens) (UniProt P27540)
# Sequence (P27540 356-470): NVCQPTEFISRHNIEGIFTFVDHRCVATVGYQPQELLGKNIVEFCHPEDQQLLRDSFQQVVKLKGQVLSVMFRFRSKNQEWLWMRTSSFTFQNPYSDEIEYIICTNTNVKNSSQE
# HIF-2α PAS-B, sequence (Q99814 239-350): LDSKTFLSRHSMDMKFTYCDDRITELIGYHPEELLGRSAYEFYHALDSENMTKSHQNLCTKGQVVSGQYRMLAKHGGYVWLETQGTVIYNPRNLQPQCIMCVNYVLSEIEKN
substance,measurement,value
HIF-2α PAS-B (from UniProt Q99814),Kd,120 µM
